Laboratory results as given in publication PMC9400903, “A Versatile Synthetic Affinity Probe Reveals Inhibitory Synapse Ultrastructure and Brain Connectivity**” (Angewandte Chemie (International Ed. in English), 2022).
Where no end group is shown, it is not given here.

T1: eGFP-gephyrin (UniProt Q03555 1-768)
T1 construct: gephyrin; source: COS-7 cells, expressed, cells fixed; 'mammalian cells' for the test of SyliteCy3
T1 sequence (looked up): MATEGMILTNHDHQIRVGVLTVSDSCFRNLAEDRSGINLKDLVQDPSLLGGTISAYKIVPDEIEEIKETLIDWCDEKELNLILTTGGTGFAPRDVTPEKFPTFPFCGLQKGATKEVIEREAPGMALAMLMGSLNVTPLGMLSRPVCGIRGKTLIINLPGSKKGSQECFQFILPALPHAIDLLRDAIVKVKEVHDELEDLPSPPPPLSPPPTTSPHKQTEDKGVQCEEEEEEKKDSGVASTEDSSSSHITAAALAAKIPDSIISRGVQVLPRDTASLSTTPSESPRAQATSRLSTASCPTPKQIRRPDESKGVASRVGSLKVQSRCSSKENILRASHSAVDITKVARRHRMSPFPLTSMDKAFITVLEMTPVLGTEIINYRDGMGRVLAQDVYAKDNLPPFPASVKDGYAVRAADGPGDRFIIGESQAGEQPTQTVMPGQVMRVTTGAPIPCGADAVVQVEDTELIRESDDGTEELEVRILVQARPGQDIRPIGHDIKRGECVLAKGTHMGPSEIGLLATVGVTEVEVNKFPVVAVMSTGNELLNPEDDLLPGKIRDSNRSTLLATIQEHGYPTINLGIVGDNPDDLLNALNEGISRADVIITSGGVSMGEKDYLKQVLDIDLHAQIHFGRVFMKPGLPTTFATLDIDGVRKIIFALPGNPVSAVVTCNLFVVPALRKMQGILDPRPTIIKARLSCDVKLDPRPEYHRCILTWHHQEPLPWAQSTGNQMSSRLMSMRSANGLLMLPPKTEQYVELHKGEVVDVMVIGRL

B1: Sylite (peptide)
chain 1: YSIVGSYPRKC(maleimide‑Cy5)
chain 2: YSIVGSYPR
modifications: also: two chains joined via linker, linkage not given here
B2: SyliteM (peptide)
chain: FSIVGSYPRRRRRRRRR
modifications: also: fluorophore
B3: gephyrin E domain (domain or fragment)
chain: SSKENILRASHSAVDITKVARRHRMSPFPLTSMDKAFITVLEMTPVLGTEIINYRDGMGRVLAQDVYAKDNLPPFPASVKDGYAVRAADGPGDRFIIGESQAGEQPTQTVMPGQVMRVTTGAPIPCGADAVVQVEDTELIRESDDGTEELEVRILVQARPGQDIRPIGHDIKRGECVLAKGTHMGPSEIGLLATVGVTEVEVNKFPVVAVMSTGNELLNPEDDLLPGKIRDSNRSTLLATIQEHGYPTINLGIVGDNPDDLLNALNEGISRADVIITSGGVSMGEKDYLKQVLDIDLHAQIHFGRVFMKPGLPTTFATLDIDGVRKIIFALPGNPVSAVVTCNLFVVPALRKMQGILDPRPTIIKARLSCDVKLDPRPEYHRCILTWHHQEPLPWAQSTGNQMSSRLMSMRSANGLLMLPPKTEQYVELHKGEVVDVMVIGRL

Tests used:
eGFP-gephyrin = target: T1, eGFP-gephyrin; assay: immunostaining of cells or tissue; fixed COS-7 cells expressing eGFP-gephyrin or eGFP alone, stained with the fluorescent probes (50 nM Sylite); probe signal at eGFP-rich regions; conditions: one partner purified
Sylite = target: B1; assay: ITC; Sylite or SyliteM titrated with purified gephyrin E domain; N=3; conditions: both partners purified
SyliteM = target: B2; assay: as above; conditions: both partners purified

Row | Binder | signal-to-background ratio (SBR) (eGFP-gephyrin) | Kd (Sylite) [nM] | stoichiometry N (Sylite) | Kd (SyliteM) [nM]
1 | B1 | 492 |  |  | 
2 | B2 | 36 |  |  | 
3 | B3 |  | 17.5 | 2 gephyrin E domain per probe | 205
